Experimental data published in patent publication US20140056902A1.
pKd: −log10 of the molar value.

How the values were obtained:
[1] = biological target: human BMP9 recombinant protein prepared according to Example 12 of WO 2010/126169 (N-terminal His-tagged hBMP9 complex, pLN1V5_human BMP9 vector) (human) (UniProt Q9UK05); test: SPR (BIAcore 2000), antibody captured on anti-mouse IgG, human BMP9 recombinant protein as analyte, single cycle kinetics
[2] = biological target: human mature dimer BMP9 recombinant protein (manufactured by R&D systems, Cat#3209-BP) (human) (UniProt Q9UK05); test: ELISA, immobilized human BMP9 (100 ng/mL coat), biotin-labeled antibody titrated, absorbance 450-570 nm; unit ng/mL from the legend
human mature dimer BMP9 recombinant protein (manufactured by R&D systems, Cat#3209-BP) (human), sequence (Q9UK05 320-429): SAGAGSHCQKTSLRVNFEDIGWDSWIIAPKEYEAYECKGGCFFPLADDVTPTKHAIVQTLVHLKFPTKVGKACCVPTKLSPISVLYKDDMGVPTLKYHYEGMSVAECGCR

human BMP9 recombinant protein prepared according to Example 12 of WO 2010/126169 (N-terminal His-tagged hBMP9 complex, pLN1V5_human BMP9 vector) (human), sequence (Q9UK05 320-429, chain 1 of 2): as the sequence (Q9UK05 320-429) above
human BMP9 recombinant protein prepared according to Example 12 of WO 2010/126169 (N-terminal His-tagged hBMP9 complex, pLN1V5_human BMP9 vector) (human), sequence (Q9UK05 23-319, chain 2 of 2): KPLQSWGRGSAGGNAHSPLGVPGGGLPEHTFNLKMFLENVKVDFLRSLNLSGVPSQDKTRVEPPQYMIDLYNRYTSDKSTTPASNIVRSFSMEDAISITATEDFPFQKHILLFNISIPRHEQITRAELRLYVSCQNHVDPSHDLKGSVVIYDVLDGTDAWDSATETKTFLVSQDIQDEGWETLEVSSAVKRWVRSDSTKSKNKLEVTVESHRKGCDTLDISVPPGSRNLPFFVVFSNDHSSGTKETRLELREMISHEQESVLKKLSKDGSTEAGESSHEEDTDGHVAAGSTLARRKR

pKd [1]: 9.21
Relative binding affinity (to R&D antibody) [1]: 1 fold
EC50 (read off the curve) [2]: 10 ng/mL
Substance: anti-human BMP9 mouse monoclonal antibody (manufactured by R&D systems, clone No. 360107)
